Measured values reported in the supplement of paper PMC5998384.

Key:
HeLa Kyoto [1] = experiment: solubility change mitosis vs G1/S (difference of NP-40 vs SDS log2 ratios) (log2 ratio difference); higher = more soluble in mitosis
HeLa Kyoto [2] = experiment: thermal stability score vs G1/S (z-score of summed log2 fold changes over temperatures); higher = more thermally stable than in G1/S
HeLa Kyoto [3] = experiment: melting temperature (median over replicates), in situ; higher = more thermally stable
HeLa Kyoto [4] = experiment: solubility in G1/S (NP-40 vs SDS abundance) (log2 ratio); higher = more soluble; conditions: cell cycle stage: G1/S
[5] = cell cycle stage: early G1 (4.5 h after nocodazole release)
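Wherever melting temperature (median over replicates), in situ is given: HeLa Kyoto cells synchronized by double thymidine or nocodazole block, proteins quantified by TMT10plex mass spectrometry, three independent biological replicates.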
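Wherever solubility change mitosis vs G1/S (difference of NP-40 vs SDS log2 ratios) is given: synchronized HeLa Kyoto cells (double thymidine block for G1/S, nocodazole release for mitosis), protein amounts in NP-40 versus SDS lysates quantified by mass spectrometry, three biological replicates.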
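Wherever solubility in G1/S (NP-40 vs SDS abundance) is given: HeLa Kyoto cells arrested at G1/S by double thymidine block, proteins quantified by TMT10plex mass spectrometry in mild NP-40 versus SDS extracts, three biological replicates.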
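Wherever thermal stability score vs G1/S (z-score of summed log2 fold changes over temperatures) is given: synchronized HeLa Kyoto cells, proteins quantified by TMT10plex mass spectrometry, three biological replicates, mitosis taken 0.5 h after nocodazole release, G1/S directly after double thymidine block.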

Row | Sequence | solubility change mitosis (log2) (HeLa Kyoto [1]) | thermal stability score (HeLa Kyoto [2]; [5]) | thermal stability score (HeLa Kyoto [2]; cell cycle stage: mitosis) | melting temperature (HeLa Kyoto [3]; cell cycle stage: G1/S) [°C] | melting temperature (HeLa Kyoto [3]; cell cycle stage: mitosis) [°C] | solubility in G1/S (log2) (HeLa Kyoto [4])
1 | METFDPTELPELLKLYYRRLFPYSQYYRWLNYGGVIKNYFQHREFSFTLKDDIYIRYQSFNNQSDLEKEMQKMNPYKIDIGAVYSHRPNQHNTVKLGAFQAQEKELVFDIDMTDYDDVRRCCSSADICPKCWTLMTMAIRIIDRALKEDFGFKHRLWVYSGRRGVHCWVCDESVRKLSSAVRSGIVEYLSLVKGGQDVKKKVHLSEKIHPFIRKSINIIKKYFEEYALVNQDILENKESWDKILALVPETIHDELQQSFQKSHNSLQRWEHLKKVASRYQNNIKNDKYGPWLEWEIMLQYCFPRLDINVSKGINHLLKSPFSVHPKTGRISVPIDLQKVDQFDPFTVPTISFICRELDAISTNEEEKEENEAESDVKHRTRDYKKTSLAPYVKVFEHFLENLDKSRKGELLKKSDLQKDF [PRIM1] | -0.247 | 0.672 | 1.37 | 48.8 | 49.6 | -0.144
2 | MADAEVIILPKKHKKKKERKSLPEEDVAEIQHAEEFLIKPESKVAKLDTSQWPLLLKNFDKLNVRTTHYTPLACGSNPLKREIGDYIRTGFINLDKPSNPSSHEVVAWIRRILRVEKTGHSGTLDPKVTGCLIVCIERATRLVKSQQSAGKEYVGIVRLHNAIEGGTQLSRALETLTGALFQRPPLIAAVKRQLRVRTIYESKMIEYDPERRLGIFWVSCEAGTYIRTLCVHLGLLLGVGGQMQELRRVRSGVMSEKDHMVTMHDVLDAQWLYDNHKDESYLRRVVYPLEKLLTSHKRLVMKDSAVNAICYGAKIMLPGVLRYEDGIEVNQEIVVITTKGEAICMAIALMTTAVISTCDHGIVAKIKRVIMERDTYPRKWGLGPKASQKKLMIKQGLLDKHGKPTDSTPATWKQEYVDYSESAKKEVVAEVVKAPQVVAEAAKTAKRKRESESESDETPPAAPQLIKKEKKKSKKDKKAKAGLESGAEPGDGDSDTTKKKKKKKKAKEVELVSE [DKC1] | 0.816 | -3.35 | -5.27 | 55.6 | 53.2 | -1.41
3 | MKAVVQRVTRASVTVGGEQISAIGRGICVLLGISLEDTQKELEHMVRKILNLRVFEDESGKHWSKSVMDKQYEILCVSQFTLQCVLKGNKPDFHLAMPTEQAEGFYNSFLEQLRKTYRPELIKDGKFGAYMQVHIQNDGPVTIELESPAPGTATSDPKQLSKLEKQQQRKEKTRAKGPSESSKERNTPRKEDRSASSGAEGDVSSEREP [DTD1] | 0.00349 | 2.15 | 0.509 | 58.3 | 57.5 | 0.119
4 | MASGAYNPYIEIIEQPRQRGMRFRYKCEGRSAGSIPGEHSTDNNRTYPSIQIMNYYGKGKVRITLVTKNDPYKPHPHDLVGKDCRDGYYEAEFGQERRPLFFQNLGIRCVKKKEVKEAIITRIKAGINPFNVPEKQLNDIEDCDLNVVRLCFQVFLPDEHGNLTTALPPVVSNPIYDNRAPNTAELRICRVNKNCGSVRGGDEIFLLCDKVQKDDIEVRFVLNDWEAKGIFSQADVHRQVAIVFKTPPYCKAITEPVTVKMQLRRPSDQEVSESMDFRYLPDEKDTYGNKAKKQKTTLLFQKLCQDHVETGFRHVDQDGLELLTSGDPPTLASQSAGITVNFPERPRPGLLGSIGEGRYFKKEPNLFSHDAVVREMPTGVSSQAESYYPSPGPISSGLSHHASMAPLPSSSWSSVAHPTPRSGNTNPLSSFSTRTLPSNSQGIPPFLRIPVGNDLNASNACIYNNADDIVGMEASSMPSADLYGISDPNMLSNCSVNMMTTSSDSMGETDNPRLLSMNLENPSCNSVLDPRDLRQLHQMSSSSMSAGANSNTTVFVSQSDAFEGSDFSCADNSMINESGPSNSTNPNSHGFVQDSQYSGIGSMQNEQLSDSFPYEFFQV [REL] | -0.0913 | -0.962 | -0.219 | 49.5 | 50.5 | -0.0913
5 | MAWRRREASVGARGVLALALLALALCVPGARGRALEWFSAVVNIEYVDPQTNLTVWSVSESGRFGDSSPKEGAHGLVGVPWAPGGDLEGCAPDTRFFVPEPGGRGAAPWVALVARGGCTFKDKVLVAARRNASAVVLYNEERYGNITLPMSHAGTGNIVVIMISYPKGREILELVQKGIPVTMTIGVGTRHVQEFISGQSVVFVAIAFITMMIISLAWLIFYYIQRFLYTGSQIGSQSHRKETKKVIGQLLLHTVKHGEKGIDVDAENCAVCIENFKVKDIIRILPCKHIFHRICIDPWLLDHRTCPMCKLDVIKALGYWGEPGDVQEMPAPESPPGRDPAANLSLALPDDDGSDDSSPPSASPAESEPQCDPSFKGDAGENTALLEAGRSDSRHGGPIS [RNF149] | -0.076 | -0.202 | -3.79 | 53.8 | 54.1 | -0.136
6 | MSSVQQQPPPPRRVTNVGSLLLTPQENESLFTFLGKKCVTMSSAVVQLYAADRNCMWSKKCSGVACLVKDNPQRSYFLRIFDIKDGKLLWEQELYNNFVYNSPRGYFHTFAGDTCQVALNFANEEEAKKFRKAVTDLLGRRQRKSEKRRDPPNGPNLPMATVDIKNPEITTNRFYGPQVNNISHTKEKKKGKAKKKRLTKADIGTPSNFQHIGHVGWDPNTGFDLNNLDPELKNLFDMCGISEAQLKDRETSKVIYDFIEKTGGVEAVKNELRRQAPPPPPPSRGGPPPPPPPPHNSGPPPPPARGRGAPPPPPSRAPTAAPPPPPPSRPSVAVPPPPPNRMYPPPPPALPSSAPSGPPPPPPSVLGVGPVAPPPPPPPPPPPGPPPPPGLPSDGDHQVPTTAGNKAALLDQIREGAQLKKVEQNSRPVSCSGRDALLDQIRQGIQLKSVADGQESTPPTPAPTSGIVGALMEVMQKRSKAIHSSDEDEDEDDEEDFEDDDEWED [WASL] | -0.121 | 0.0343 | 1.24 | 50.7 | 51.3 | 0.303
7 | MAAAVAAAGAGEPQSPDELLPKGDAEKPEEELEEDDDEELDETLSERLWGLTEMFPERVRSAAGATFDLSLFVAQKMYRFSRAALWIGTTSFMILVLPVVFETEKLQMEQQQQLQQRQILLGPNTGLSGGMPGALPSLPGKI [TOMM22] | 0.211 | -3.84 | -4.82 | 53.4 | 52.8 | -0.782
